Data: patent US20090074657A1 (IMMUNE PHARMACEUTICALS, published 2009)

B1: murine monoclonal anti-ferritin antibody AMB8LK (antibody, V domains shown)
VH: QVQLKESGPGLVAPSQSLSITCTVSGFSLSRYSVHWVRQPPGKGLEWLGTIWGGGSTDYNSVLKSRLSISKDNSKSQVLLKVNSLQTDDTAIYYCASGPYYYTMDYWGQGTSVTVSS
VL: QIVLTQSPAILSASLGEEITLTCSASSSVTFMHWYQQKSGTSPKLLIYTTSNLASGVPSRFSGSGSGTFYSLTISSVEAEDAADYYCHQWSSYPTFGSGTKLEIKR
notes: also called unconjugated AMB8LK; native antibody
B2: Bz-DTPA-AMB8LK (antibody, V domains shown)
VH: B1 VH
VL: B1 VL
modifications: about 3 Bz-DTPA chelates per antibody (pSCN-Bz-DTPA conjugation; sites not stated); 111In or 90Y in the radioimmunoassays
notes: also called DTPA conjugate; 111In-DTPA-AMB8LK
B3: Bz-CHX-A″-DTPA-AMB8LK (antibody, V domains shown)
VH: B1 VH
VL: B1 VL
modifications: about 3 Bz-CHX-A″-DTPA chelates per antibody (pSCN-Bz-CHX-A″-DTPA conjugation; sites not stated); 111In or 90Y in the radioimmunoassays
notes: also called CHX-DTPA-AMB8LK; CHX-DTPA
B4: Bz-DOTA-AMB8LK (antibody, V domains shown)
VH: B1 VH
VL: B1 VL
modifications: about 3.2 Bz-DOTA chelates per antibody (pSCN-Bz-DOTA conjugation; sites not stated); 111In or 90Y in the radioimmunoassays
notes: also called DOTA-conjugate; 111In-DOTA-AMB8LK

Tests used:
human ferritin = human ferritin (human, UniProt P02794 2-183; P02792 2-175, limits assumed); assay: method not stated
[1] = target: T1, ferritin in fixed and permeabilized CAPAN-1 cells (human, UniProt P02794 1-183; P02792 2-175); assay: Lindmo assay on fixed and permeabilized CAPAN-1 cells, 111In-labelled conjugate
T1 construct: whole, on cells; Endogenous ferritin, over-expressed by CAPAN-1 cells; The cells were fixed and permeabilized, so the ferritin reached is inside the cells; also called cells expressing ferritin
Procedure: Immunoreactivity of the immunoconjugates was assessed on cells expressing ferritin using the method described by Lindmo et al Determination of the immunoreactive fraction of radiolabeled monoclonal antibodies by linear extrapolation to binding at infinite antigen excess. J Immunol Methods 1984; 72 (1):77-89.
The CAPAN-1 cells are a relevant model for human pancreatic cancer (Kyriazis et al Human pancreatic adenocarcinoma line Capan-1 in tissue culture and the nude mouse:morphologic, biologic, and biochemical characteristics. Am J Pathol 1982; 106(2):250-60.). This cell line was established from a liver metastasis of a human pancreatic ductal adenocarcinoma, is tumorigenic and metastatic in nude mice and over-expresses ferritin. […] CAPAN-1 cells were grown in RPMI, 10% foetal calf serum and 2 mM L-glutamine. Cells were harvested at 70-85% confluence using trypsin, washed and resuspended in PBS-0.5% BSA. They were then fixed and permeabilized using the Intrastain kit (rako) following the manufacturer's instructions. Cells were diluted in PBS-0.5% BSA at concentrations ranging from 1.25×10⁵ to 12×10⁶ cells/ml and 500 μl of these suspensions were incubated with a fixed amount of ¹¹¹In-labeled-Ab (250 μl, 50 ng/ml, approximately 100,000CPM) for 2 hours at room temperature under agitation. Suspensions were centrifuged at 5,000×rpm for 5 minutes, the cells were washed with PBS-BSA and the activity in the pellets was counted. Nonspecific binding was determined by co-incubation of the radiolabelled-antibody with a 1.000-fold excess of cold antibody. The total radioactive counts added to each tube were divided by the cell-bound counts after subtraction of the non-specifically bound counts. These values were plotted against the reciprocal of cell dilution. After linear regression analysis, the immunoreactive fraction was obtained from the reciprocal of the intercept on the y-axis.

[2] = target: T2, human liver ferritin (Calbiochem) (human, UniProt P02794 2-183; P02792 2-175); assay: solid-phase radioimmunoassay, ferritin immobilised at 5 µg/ml on tubes, 90Y-labelled conjugate
T2 construct: Natural ferritin is a multimer of acidic (H) and basic (L) subunits; Adsorbed on plates or tubes in the assays; also called pure ferritin
Procedure: (§1) A solid-phase radioimmunoassay was performed using ¹¹¹In- and ⁹⁰y-labelled antibodies. Maxisorp tunes (Nunc) were incubated overnight at 4° C. with 1.5 to 10 μg/ml ferritin in PBS. After washing, they were blocked by PBS-0.5% BSA for 2 hours at room temperature. 6.25×10³, 12.5×10³ and 25×10³CPM (200 μl) of the antibodies were added in the coated tubes. The activity in each tube was counted in the gamma counter, then the tubes were washed three times with PBS-0.4% Tween-20 and the remaining activity counted. The difference between activities with and without the radiolabelled-antibody solutions indicated the percentage of bound-antibody. For evaluation of non specific binding to ferritin, a 100-fold excess of unconjugated antibody was added to the most concentrated radiolabelled-antibody solution. Non specific binding of the antibody was assessed on uncoated tubes. […] These binding percentages were calculated taking into account small differences in the labelling efficiencies of the three compounds on the day of the experiment.
(§2) ^aFerritin was immobilised at 5 μg/ml on tubes, then the indium or yttrium conjugated antibodies were incubated at three dilutions ([…]) Results are expressed as the mean of the percentage of bound antibody after washing the tubes. Non specific binding of the antibodies were less than 2%. ^bFive serial dilutions of fixed and permeabilized CAPAN-1 cells were incubated with the three radiolabelled compounds. After washing, the activity bound to the cells was counted in a gamma counter. Results were analysed using the GraphPad software; linear regression analysis of (Total CPM/Bound CPM) = f(cells dilution) were very accurate with r² > 0.99 for all three conjugates.

[3] = target: T2, human liver ferritin (Calbiochem); assay: solid-phase radioimmunoassay, ferritin immobilised at 5 µg/ml on tubes, 111In-labelled conjugate
Procedure: as §1, §2

T2 sequence (P02794 2-183 limits assumed, chain 1 of 2): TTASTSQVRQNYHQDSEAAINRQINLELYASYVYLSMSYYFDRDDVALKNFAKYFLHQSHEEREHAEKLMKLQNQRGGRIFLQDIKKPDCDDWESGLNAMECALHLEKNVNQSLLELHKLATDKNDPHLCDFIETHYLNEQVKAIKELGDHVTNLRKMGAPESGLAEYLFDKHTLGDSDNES
T2 sequence (P02792 2-175 limits assumed, chain 2 of 2): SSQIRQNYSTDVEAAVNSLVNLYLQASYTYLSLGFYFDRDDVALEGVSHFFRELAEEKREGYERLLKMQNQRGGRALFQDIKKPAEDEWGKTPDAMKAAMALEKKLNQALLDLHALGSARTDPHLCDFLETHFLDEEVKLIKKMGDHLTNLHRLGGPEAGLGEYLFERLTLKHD
T1 sequence (P02794 whole entry, chain 1 of 2): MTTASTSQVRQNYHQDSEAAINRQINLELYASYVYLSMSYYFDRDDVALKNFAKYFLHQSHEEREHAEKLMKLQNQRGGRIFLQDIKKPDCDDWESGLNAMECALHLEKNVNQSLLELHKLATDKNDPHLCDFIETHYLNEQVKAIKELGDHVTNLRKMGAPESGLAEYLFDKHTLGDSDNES
T1 sequence (P02792 2-175, chain 2 of 2): as the sequence (P02792 2-175 limits assumed, chain 2 of 2) above
human ferritin, sequence (P02794 2-183 limits assumed, chain 1 of 2): as the sequence (P02794 2-183 limits assumed, chain 1 of 2) above
human ferritin, sequence (P02792 2-175 limits assumed, chain 2 of 2): as the sequence (P02792 2-175 limits assumed, chain 2 of 2) above

Binder	Kd (human ferritin) [nM]	immunoreactivity (immunoreactive fraction) [1] [%]	immunoreactivity (percentage of bound antibody) [2] [%]	immunoreactivity (percentage of bound antibody) [3] [%]
B1	5.1			
B2		52	100	87
B3		43	98.9	74.8
B4		24	73.2	76.8
